Key:
extended synaptotagmin 2 = biological target: T1, extended synaptotagmin 2 (human, UniProt A0FGR8 564-921)
T1 construct: HuProt array protein; labelled _frag; also called ESYT2_frag
T1 sequence: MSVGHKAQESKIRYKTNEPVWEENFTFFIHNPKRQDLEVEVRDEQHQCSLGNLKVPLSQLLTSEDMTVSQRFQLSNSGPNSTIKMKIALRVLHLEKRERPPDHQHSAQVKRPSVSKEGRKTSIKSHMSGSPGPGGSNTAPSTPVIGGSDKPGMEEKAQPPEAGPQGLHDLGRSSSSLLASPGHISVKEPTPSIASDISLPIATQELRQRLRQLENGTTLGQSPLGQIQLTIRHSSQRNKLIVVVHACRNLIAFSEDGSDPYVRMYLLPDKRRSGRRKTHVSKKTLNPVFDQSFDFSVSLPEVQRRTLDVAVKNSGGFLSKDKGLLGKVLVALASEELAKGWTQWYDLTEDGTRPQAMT

[1] = biological target: T2, BAR/IMD domain containing adaptor protein 2, transcript variant 3 (human, UniProt Q9UQB8 1-511)
T2 construct: HuProt array protein, full-length recombinant from yeast; also called BAIAP2
T2 sequence: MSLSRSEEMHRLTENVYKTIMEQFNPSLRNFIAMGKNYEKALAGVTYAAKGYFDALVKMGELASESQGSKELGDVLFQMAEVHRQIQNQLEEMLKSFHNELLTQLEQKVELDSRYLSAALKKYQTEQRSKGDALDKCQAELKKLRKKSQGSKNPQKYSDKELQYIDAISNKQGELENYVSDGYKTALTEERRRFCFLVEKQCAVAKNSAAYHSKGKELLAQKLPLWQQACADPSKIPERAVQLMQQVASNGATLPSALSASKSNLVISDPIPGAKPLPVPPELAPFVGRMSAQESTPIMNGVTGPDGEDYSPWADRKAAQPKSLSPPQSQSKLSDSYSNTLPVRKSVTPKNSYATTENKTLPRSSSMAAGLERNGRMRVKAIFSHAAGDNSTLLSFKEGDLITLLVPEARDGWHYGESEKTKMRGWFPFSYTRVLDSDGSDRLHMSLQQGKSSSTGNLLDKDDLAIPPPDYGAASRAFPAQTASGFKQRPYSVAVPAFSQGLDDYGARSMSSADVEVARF

[2] = biological target: T3, homeobox and leucine zipper encoding (human, UniProt Q8IX15 25-550)
T3 construct: HuProt array protein, full-length recombinant from yeast; also called HOMEZ
T3 sequence: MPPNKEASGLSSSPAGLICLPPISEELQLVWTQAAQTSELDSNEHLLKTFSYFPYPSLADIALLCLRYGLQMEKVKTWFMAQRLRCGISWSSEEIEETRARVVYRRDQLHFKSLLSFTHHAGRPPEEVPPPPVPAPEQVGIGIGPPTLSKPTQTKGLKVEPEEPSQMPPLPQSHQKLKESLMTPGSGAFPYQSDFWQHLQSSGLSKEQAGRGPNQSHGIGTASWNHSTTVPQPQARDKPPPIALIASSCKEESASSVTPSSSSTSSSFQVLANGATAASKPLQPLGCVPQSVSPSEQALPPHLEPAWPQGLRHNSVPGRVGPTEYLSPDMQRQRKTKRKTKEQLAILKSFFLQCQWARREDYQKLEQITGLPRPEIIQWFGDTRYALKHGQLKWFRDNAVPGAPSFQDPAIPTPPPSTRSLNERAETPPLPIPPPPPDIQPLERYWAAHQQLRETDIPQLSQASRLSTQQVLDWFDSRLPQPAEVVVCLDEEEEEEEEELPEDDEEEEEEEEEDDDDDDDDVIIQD

[3] = biological target: T4, FA complementation group G (human, UniProt O15287 1-622); assay: protein array
T4 construct: on protein array; also called FANCG
T4 sequence: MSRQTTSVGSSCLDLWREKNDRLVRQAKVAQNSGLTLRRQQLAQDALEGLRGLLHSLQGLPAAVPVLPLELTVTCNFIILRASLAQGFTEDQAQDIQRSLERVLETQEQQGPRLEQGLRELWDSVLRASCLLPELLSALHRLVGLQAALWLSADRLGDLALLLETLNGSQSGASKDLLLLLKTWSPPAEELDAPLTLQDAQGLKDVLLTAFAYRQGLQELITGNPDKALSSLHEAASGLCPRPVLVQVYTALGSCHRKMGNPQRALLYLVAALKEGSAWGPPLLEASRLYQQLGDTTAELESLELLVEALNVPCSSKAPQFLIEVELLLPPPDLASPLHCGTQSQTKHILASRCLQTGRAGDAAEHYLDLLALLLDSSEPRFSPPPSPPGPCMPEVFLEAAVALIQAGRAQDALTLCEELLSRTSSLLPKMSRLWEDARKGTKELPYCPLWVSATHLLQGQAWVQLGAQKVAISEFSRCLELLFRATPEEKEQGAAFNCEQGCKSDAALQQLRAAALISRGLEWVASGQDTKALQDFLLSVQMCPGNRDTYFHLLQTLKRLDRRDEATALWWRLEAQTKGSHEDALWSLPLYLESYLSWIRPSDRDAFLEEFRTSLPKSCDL

LIM homeobox 5 = biological target: T5, LIM homeobox 5 (human, UniProt Q9H2C1 1-402)
T5 construct: HuProt array protein, full-length recombinant from yeast; also called LHX5
T5 sequence: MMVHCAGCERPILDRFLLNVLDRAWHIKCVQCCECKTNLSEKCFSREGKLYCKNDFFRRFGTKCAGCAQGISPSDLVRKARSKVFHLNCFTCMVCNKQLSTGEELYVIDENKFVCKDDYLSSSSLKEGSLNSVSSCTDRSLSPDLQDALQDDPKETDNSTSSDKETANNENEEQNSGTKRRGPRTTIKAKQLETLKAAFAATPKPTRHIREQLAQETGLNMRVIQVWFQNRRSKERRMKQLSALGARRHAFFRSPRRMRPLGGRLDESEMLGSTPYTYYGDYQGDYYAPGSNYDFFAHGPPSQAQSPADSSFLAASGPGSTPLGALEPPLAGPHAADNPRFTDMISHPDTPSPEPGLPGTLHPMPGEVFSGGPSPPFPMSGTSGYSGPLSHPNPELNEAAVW

[4] = biological target: T6, growth factor receptor bound protein 2, transcript variant 1 (human, UniProt P62993 1-217)
T6 construct: HuProt array protein, full-length recombinant from yeast; also called GRB2

[5] = biological target: T7, leucine rich repeat containing 28, transcript variant 1 (human, UniProt Q86X40 1-367)
T7 construct: HuProt array protein, full-length recombinant from yeast; also called LRRC28
T7 sequence (Q86X40 whole entry, change not shown): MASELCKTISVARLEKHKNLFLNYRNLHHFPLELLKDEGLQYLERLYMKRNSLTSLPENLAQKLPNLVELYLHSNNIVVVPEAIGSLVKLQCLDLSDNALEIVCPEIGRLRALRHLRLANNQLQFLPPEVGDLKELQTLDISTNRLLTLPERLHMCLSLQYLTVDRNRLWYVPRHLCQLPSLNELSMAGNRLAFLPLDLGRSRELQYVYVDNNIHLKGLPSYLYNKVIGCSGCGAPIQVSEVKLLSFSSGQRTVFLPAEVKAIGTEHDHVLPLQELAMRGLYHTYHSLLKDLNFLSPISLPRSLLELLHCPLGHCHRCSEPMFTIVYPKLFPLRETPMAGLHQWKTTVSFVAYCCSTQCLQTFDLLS

B1: TCOL1004 (antibody, V domains shown)
VH: QVQLQESGPGLVKPSQTLSLTCIVSGGSISGDKNFWSWVRQHPEKGLEWLGYISYNGNTYYNPSLISRIIISLDTPKNLFSLRLSSVTVADTAIYYCAREVDIRGDSDAFDIWGRGTVVTVSS
VL: EIVMTQSPATLSVSPGERATLSCRASQSVSTNLAWYQQRPGQAPRLFIFGASTRATGIPARFSGSGSGTEFTLTISSPQPEDSAVYYCQQYTTRPLTFGGGTKVEIKR
notes: detected with anti-human IgG Fc
**Q.** Does B1 bind (extended synaptotagmin 2)?
**A.** binds

B2: TCOL1006 (antibody, V domains shown)
VH: EVQLVESGGGLVQPGGSLRLSCAASGFPPRSFAMSWVRQAPGKGLEWVSSISGLGNSIYYAESVKGRFITSRDNSKSTVFLLMNSLRAEDTAVYYCAKSAFGGVPDGFDIWGQGTMVTVSS
VL: QSVVTQPPSASGPPGQTVTISCSGGRSNVASHAVHWYQHLPGTAPKLLIYNDHQRPSGVPDRFSGSKSGPSASLAISGLRSEDEADYYCATWDDSLGGRVVFGGGTKLTVLG
notes: as for B1
**Q.** Does B2 bind [1]?
**A.** binds

**Q.** Does B2 bind [2]?
**A.** binds

B3: TBRE1024 (antibody, V domains shown)
VH: PVQLQESGPGLVKPSETLSLTCTVSGGSISSDNYYWSWLRQHPGKGLEWIGYIYFSVTTYYNPSLKSRVTISLDTSKNQFSLKLSSVTAADTAVYYCASGYVSFDLWGQGTLVTVSS
VL: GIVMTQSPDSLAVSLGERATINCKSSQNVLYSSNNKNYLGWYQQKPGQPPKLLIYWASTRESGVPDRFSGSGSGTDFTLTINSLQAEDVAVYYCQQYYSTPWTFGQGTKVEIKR
notes: VH/VL only
**Q.** Does B3 bind [3]?
**A.** binds

B4: TCOL1009 (antibody, V domains shown)
VH: PVQLVQSGAEVKKPGASVKVSCKASGDTFPNYVISWVRQAPGQGLEWVGCINTNNGKTNYVQKLQGRVILTTDTSTNTANMELRSLRFDDTAVYYCARERGQVRSYGMDVWGQGTAVTVSS
VL: PYELTQPPSVSVSPGQTANITCSGDKLGDICVCWYQQKPGQSPVLVIYQHNKRPSGIPERFSGSNSGNTATLTISATQATDEAIYYCQSWDSSSVLFGGGTKLTVLG
notes: as for B1
**Q.** Does B4 bind (LIM homeobox 5)?
**A.** binds

**Q.** Does B4 bind [4]?
**A.** binds

B5: TESO1003 (antibody, V domains shown)
VH: QVQLVESGGGVVQPGRSLRLSCAASGFTFSNYDMHWVRQAPGKGLEWVTVVSYDGTNKYYAESVQGRFTISRDNSKNTLYLQMNSLRTEDTAVYYCAKEGGWGNTVTTSYYYYGMDVWGQGTTVTVSS
VL: QIVLTQSPATLSLSPGERATLSCRASQSVSNYLAWYQQKPGQAPRLLIYDASNRATGIPARFSGSGSGTDFTLTISSLEPEDFAVYYCQQRSNWPPYTFGQGTKLDIKR
notes: as for B1
**Q.** Does B5 bind [5]?
**A.** binds
